Experimental data published in paper PMC2566870.
Values belong to the substance of their own block, whether it stands above or below them.

How the values were obtained:
Assay in all cases: SEC
[1] = target: Hera_E115C/R260C (Thermus thermophilus HB27)
[2] = target: Thermus thermophilus DEAD box helicase Hera, wild-type (Thermus thermophilus HB27) (UniProt Q72GF3)
[3] = target: Hera_core (aa 1-365) (Thermus thermophilus HB27)
[4] = target: Hera_CTD (C-terminal domain of Hera, amino acids 370-511) (Thermus thermophilus HB27)
[5] = target: Hera_core_E115C/R260C (Thermus thermophilus HB27)

Substance: Thermus thermophilus DEAD box helicase Hera, wild-type (from UniProt Q72GF3 1-517) (enzyme)
stoichiometry N [2]: 2

Substance: Hera_core (aa 1-365) (domain or fragment)
stoichiometry N [3]: 2

Substance: Hera_CTD (C-terminal domain of Hera, amino acids 370-511) (domain or fragment)
stoichiometry N [4]: 2

The next lines start with the values.

stoichiometry N [1]: 2
Substance: Hera_E115C/R260C (enzyme)

stoichiometry N [5]: 2
Substance: Hera_core_E115C/R260C (domain or fragment)
